Source: US20170349943, “METHODS FOR DETECTING ENHANCED NMDA RECEPTOR FUNCTION AND USES THEREOF” (INOVA HEALTH SYSTEM, published 2017)

Target: T1, Elk-1 (Homo sapiens, UniProt P19419 P19419:1-428)
T1 sequence: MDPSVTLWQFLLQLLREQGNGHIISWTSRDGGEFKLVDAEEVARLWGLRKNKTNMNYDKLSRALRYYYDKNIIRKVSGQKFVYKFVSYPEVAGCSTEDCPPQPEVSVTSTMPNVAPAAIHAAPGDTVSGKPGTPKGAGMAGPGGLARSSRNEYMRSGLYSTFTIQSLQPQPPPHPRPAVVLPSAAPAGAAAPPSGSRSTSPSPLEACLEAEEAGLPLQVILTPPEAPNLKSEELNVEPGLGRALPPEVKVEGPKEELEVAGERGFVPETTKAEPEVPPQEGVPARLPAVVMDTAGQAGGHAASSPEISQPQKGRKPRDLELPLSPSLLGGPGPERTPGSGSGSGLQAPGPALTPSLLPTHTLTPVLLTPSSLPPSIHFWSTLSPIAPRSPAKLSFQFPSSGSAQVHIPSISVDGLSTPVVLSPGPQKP
Assay: EMSA; bound to a greater extent than G allele; 50 mM HEPES pH 7.5, 10 mM MgCl2, on ice 1 h, then Elk-1 antibody
Conditions: tags: recombinant human Elk-1, Sigma Aldrich
Method: FIG. 2 depicts binding of recombinant Elk-1 protein (an ETS transcription factor) to double stranded DNAs containing the single nucleotide polymorphism (SNP) rs3764030 variant A allele from the human GRIN2B gene promoter. Double-stranded DNA targets (Methods) were sequentially incubated with 1 μg recombinant human Elk-1 protein in EMSA buffer, then incubated with the Elk-1 antibody 20 minutes. […] Samples were electrophoresed through 6% polyacrylamide gels in HEPES buffer pH 6.3, without polydldC. The gel was then stained with the SYBR Green to visualize DNA and SYPRO Ruby for protein bound to DNA. The stained gel was scanned using G:BOX (Syngene, US) for imaging. Elk-1 bound to DNA is indicated by the arrow.
The complementary pairs of DNA oligonucleotides were first annealed in Biorad C1000 thermocycler with 1° C./1 min decreasing from 95° C. to 20° C. The annealing buffer composition was 10 mM Tris-HCl pH 8.0, 1 mM EDTA and 50 mM NaCl. The annealed dsDNA was then incubated with 1 μg recombinant human Elk-1 protein (Sigma Aldrich, US) on ice for 1 hour in EMSA buffer, then incubated with the Elk-1 antibody (SC-355)(Santa Cruz Technology, US) 20 minutes in room temperature. The compositions of EMSA buffer was 50 mM HEPES pH7.5, 10 mM MgCl₂, 5% glycerol, 1 mM DTT, 0.3% BSA and 1 mM EDTA. […]

B1: GRIN2B promoter rs3764030 A allele probe (dsDNA)
DNA 1: CATCTCCGGGGAACACGCGAA
DNA 2: TTCGCGTGTTCCCCGGAGATG
binding result: binds
